Tests used:
[1] = molecular target: T1, Lys(Dnp)-ATNATIIPRIVGG-Lys(Abz)
T1 chain: KATNATIIPRIVGGK

[2] = molecular target: T2, Lys(Dnp)-ATNATAKPRIVGG-Lys(Abz)
T2 chain: KATNATAKPRIVGGK

[3] = molecular target: T3, Lys(Dnp)-ATNATLYPRIVGG-Lys(Abz)
T3 chain: KATNATLYPRIVGGK

[4] = molecular target: T4, Lys(Dnp)-ATNATFQPRIVGG-Lys(Abz)
T4 chain: KATNATFQPRIVGGK

[5] = molecular target: T5, Lys(Dnp)-ATNATVHPRIVGG-Lys(Abz)
T5 chain: KATNATVHPRIVGGK

[6] = molecular target: T6, Lys(Dnp)-ATNATFMPRIVGG-Lys(Abz)
T6 chain: KATNATFMPRIVGGK

[7] = molecular target: T7, Lys(Dnp)-ATNATVIPRIVGG-Lys(Abz)
T7 chain: KATNATVIPRIVGGK

[8] = molecular target: T8, Lys(Dnp)-ATNATYSPRIVGG-Lys(Abz)
T8 chain: KATNATYSPRIVGGK

[9] = molecular target: T9, Lys(Dnp)-ATNATLIPRIVGG-Lys(Abz)
T9 chain: KATNATLIPRIVGGK

[10] = molecular target: T10, Lys(Dnp)-ATNATVKPRIVGG-Lys(Abz)
T10 chain: KATNATVKPRIVGGK

[11] = molecular target: T11, Lys(Dnp)-ATNATMPPRIVGG-Lys(Abz)
T11 chain: KATNATMPPRIVGGK

[12] = molecular target: T12, Lys(Dnp)-ATNATNEPRIVGG-Lys(Abz)
T12 chain: KATNATNEPRIVGGK

[13] = molecular target: T13, Lys(Dnp)-ATNATTYPRIVGG-Lys(Abz)
T13 chain: KATNATTYPRIVGGK

[14] = molecular target: T14, Lys(Dnp)-ATNATYFPRIVGG-Lys(Abz)
T14 chain: KATNATYFPRIVGGK

[15] = molecular target: T15, Lys(Dnp)-ATNATADPRIVGG-Lys(Abz)
T15 chain: KATNATADPRIVGGK

[16] = molecular target: T16, Lys(Dnp)-ATNATIGPRIVGG-Lys(Abz)
T16 chain: KATNATIGPRIVGGK

[17] = molecular target: T17, Lys(Dnp)-ATNATSKPRIVGG-Lys(Abz)
T17 chain: KATNATSKPRIVGGK

[18] = molecular target: T18, Lys(Dnp)-ATNATDVPRIVGG-Lys(Abz)
T18 chain: KATNATDVPRIVGGK

[19] = molecular target: T19, Lys(Dnp)-ATNATLDPRIVGG-Lys(Abz)
T19 chain: KATNATLDPRIVGGK

[20] = molecular target: T20, Lys(Dnp)-ATNATDTPRIVGG-Lys(Abz)
T20 chain: KATNATDTPRIVGGK

[21] = molecular target: T21, Lys(Dnp)-ATNATMNPRIVGG-Lys(Abz)
T21 chain: KATNATMNPRIVGGK

[22] = molecular target: T22, Lys(Dnp)-ATNATPIPRIVGG-Lys(Abz)
T22 chain: KATNATPIPRIVGGK

[23] = molecular target: T23, Lys(Dnp)-ATNATDQPRIVGG-Lys(Abz)
T23 chain: KATNATDQPRIVGGK

[24] = molecular target: T24, Lys(Dnp)-ATNATPDPRIVGG-Lys(Abz)
T24 chain: KATNATPDPRIVGGK

[25] = molecular target: T25, Lys(Dnp)-ATNATQSPRIVGG-Lys(Abz)
T25 chain: KATNATQSPRIVGGK

[26] = molecular target: T26, Lys(Dnp)-ATNATVAPRIVGG-Lys(Abz)
T26 chain: KATNATVAPRIVGGK

[27] = molecular target: T27, Lys(Dnp)-ATNATNWPRIVGG-Lys(Abz)
T27 chain: KATNATNWPRIVGGK

[28] = molecular target: T28, Lys(Dnp)-ATNATFPPRIVGG-Lys(Abz)
T28 chain: KATNATFPPRIVGGK

[29] = molecular target: T29, Lys(Dnp)-ATNATQKPRIVGG-Lys(Abz)
T29 chain: KATNATQKPRIVGGK

[30] = molecular target: T30, Lys(Dnp)-ATNATRAPRIVGG-Lys(Abz)
T30 chain: KATNATRAPRIVGGK

[31] = molecular target: T31, Lys(Dnp)-ATNATLGPRIVGG-Lys(Abz)
T31 chain: KATNATLGPRIVGGK

[32] = molecular target: T32, Lys(Dnp)-ATNATPAPRIVGG-Lys(Abz)
T32 chain: KATNATPAPRIVGGK

[33] = molecular target: T33, Lys(Dnp)-ATNATMLPRIVGG-Lys(Abz)
T33 chain: KATNATMLPRIVGGK

[34] = molecular target: T34, Lys(Dnp)-ATNATRMPRIVGG-Lys(Abz)
T34 chain: KATNATRMPRIVGGK

[35] = molecular target: T35, Lys(Dnp)-ATNATYRPRIVGG-Lys(Abz)
T35 chain: KATNATYRPRIVGGK

[36] = molecular target: T36, Lys(Dnp)-ATNATQHPRIVGG-Lys(Abz)
T36 chain: KATNATQHPRIVGGK

[37] = molecular target: T37, Lys(Dnp)-ATNATNLPRIVGG-Lys(Abz)
T37 chain: KATNATNLPRIVGGK

[38] = molecular target: T38, Lys(Dnp)-ATNATRIPRIVGG-Lys(Abz)
T38 chain: KATNATRIPRIVGGK

[39] = molecular target: T39, Lys(Dnp)-ATNATISPRIVGG-Lys(Abz)
T39 chain: KATNATISPRIVGGK

[40] = molecular target: T40, Lys(Dnp)-ATNATNNPRIVGG-Lys(Abz)
T40 chain: KATNATNNPRIVGGK

[41] = molecular target: T41, Lys(Dnp)-ATNATPTPRIVGG-Lys(Abz)
T41 chain: KATNATPTPRIVGGK

B1: Human plasma purified Factor Xa (protein)
chain 1: ANSFLEEMKKGHLERECMEETCSYEEAREVFEDSDKTNEFWNKYKDGDQCETSPCQNQGKCKDGLGEYTCTCLEGFEGKNCELFTRKLCSLDNGDCDQFCHEEQNSVVCSCARGYTLADNGKACIPTGPYPCGKQTLER
chain 2: IVGGQECKDGECPWQALLINEENEGFCGGTILSEFYILTAAHCLYQAKRFKVRVGDRNTEQEEGGEAVHEVEVVIKHNRFTKETYDFDIAVLRLKTPITFRMNVAPACLPERDWAESTLMTQKTGIVSGFGRTHEKGRQSTRLKMLEVPYVDRNSCKLSSSFIITQNMFCAGYDTKQEDACQGDSGGPHVTRFKDTYFVTGIVSWGEGCARKGKYGIYTKVTAFLKWIDRSMKTRGLPKAKSHAPEVITSSPLK
With B1 the FXa kcat/KM [1] was 490 M⁻¹ s⁻¹, the FXa kcat/KM [2] was 30 M⁻¹ s⁻¹ and the FXa kcat/KM [3] was 160 M⁻¹ s⁻¹. For the same protein, the FXa kcat/KM [4] was 260 M⁻¹ s⁻¹, the FXa kcat/KM [5] was 67 M⁻¹ s⁻¹ and the FXa kcat/KM [6] was 840 M⁻¹ s⁻¹. It also gave an FXa kcat/KM [7] of 120 M⁻¹ s⁻¹, an FXa kcat/KM [8] of 41 M⁻¹ s⁻¹ and an FXa kcat/KM [9] of 420 M⁻¹ s⁻¹. The FXa kcat/KM [10] was 38 M⁻¹ s⁻¹.

B2: Human plasma purified Factor Xa (Molecular Innovations, Inc) (protein)
chain 1: B1 chain 1
chain 2: B1 chain 2
B2 showed an FXa kcat/KM [11] of 4.1 M⁻¹ s⁻¹, an FXa kcat/KM [12] of 20 M⁻¹ s⁻¹ and an FXa kcat/KM [13] of 23 M⁻¹ s⁻¹. It also gave an FXa kcat/KM [14] of 34 M⁻¹ s⁻¹, an FXa kcat/KM [15] of 56 M⁻¹ s⁻¹ and an FXa kcat/KM [16] of 170 M⁻¹ s⁻¹. The FXa kcat/KM [17] was 13 M⁻¹ s⁻¹, the FXa kcat/KM [18] was 15 M⁻¹ s⁻¹ and the FXa kcat/KM [19] was 1000 M⁻¹ s⁻¹. For the same protein, the FXa kcat/KM [20] was 6.4 M⁻¹ s⁻¹, the FXa kcat/KM [21] was 430 M⁻¹ s⁻¹ and the FXa kcat/KM [22] was 590 M⁻¹ s⁻¹. It also gave an FXa kcat/KM [23] of 2.2 M⁻¹ s⁻¹, an FXa kcat/KM [24] of 790 M⁻¹ s⁻¹ and an FXa kcat/KM [25] of 950 M⁻¹ s⁻¹. For the same protein, the FXa kcat/KM [26] was 62 M⁻¹ s⁻¹, the FXa kcat/KM [27] was 86 M⁻¹ s⁻¹ and the FXa kcat/KM [28] was 6.2 M⁻¹ s⁻¹. The FXa kcat/KM [29] was 49 M⁻¹ s⁻¹, the FXa kcat/KM [30] was 2000 M⁻¹ s⁻¹ and the FXa kcat/KM [31] was 140 M⁻¹ s⁻¹. The FXa kcat/KM [32] was 170 M⁻¹ s⁻¹, the FXa kcat/KM [33] was 530 M⁻¹ s⁻¹ and the FXa kcat/KM [34] was 4600 M⁻¹ s⁻¹. It also gave an FXa kcat/KM [35] of 610 M⁻¹ s⁻¹, an FXa kcat/KM [36] of 550 M⁻¹ s⁻¹ and an FXa kcat/KM [37] of 110 M⁻¹ s⁻¹. For the same protein, the FXa kcat/KM [38] was 700 M⁻¹ s⁻¹, the FXa kcat/KM [39] was 610 M⁻¹ s⁻¹ and the FXa kcat/KM [40] was 15 M⁻¹ s⁻¹. The FXa kcat/KM [41] was 840 M⁻¹ s⁻¹.

From patent publication US20160024487
